Experimental data taken from patent US20200057058A1 (MIT, published 2020).

How the values were obtained:
streptavidin [1] = target: T1, streptavidin (UniProt P22629 37-163, limits assumed); assay: fluorescent binding curve, labeled SA in 50% urine, 4 h; quadratic fit
T1 construct: It was used without a stated label in the sandwich assays; also called SA

[2] = target: monomeric streptavidin variant mSA2; assay: fluorescent binding curve, labeled mSA2 in 50% blood serum, 4 h; quadratic fit
streptavidin [3] = target: T1, streptavidin; assay: apparent Kd (Kd,app); fluorescent binding curve, labeled SA in PBS, 4 h exposure; quadratic fit
[4] = target: monomeric streptavidin variant mSA2; assay: fluorescent binding curves, labeled mSA2 in 50% urine or 50% blood serum, 4 h
[5] = target: monomeric streptavidin variant mSA2; assay: apparent Kd (Kd,app); fluorescent binding curve, labeled mSA2 in 50% urine, 4 h; quadratic fit
[6] = target: monomeric streptavidin variant mSA2; assay: fluorescent binding curve, labeled mSA2 in 50% urine, 4 h; quadratic fit
[7] = target: monomeric streptavidin variant mSA2; assay: fluorescent binding assay, labeled mSA2; signal three standard deviations above blank
Description: (§1) The binding function of rcSso7d.SA oligomer-PNIPAM thin films was measured using fluorescently-labeled monomeric streptavidin (mSA2) and fluorescently-labeled streptavidin (SA). Details for the expression, purification, and fluorescent labeling of mSA2 are provided below. Samples were prepared by serial dilution of SA or mSA2 in PBS (pH 7.4), human urine (diluted to 50% v/v in PBS, pH 7.4), or blood serum (obtained as the supernatant by centrifuging whole blood at 1500×g for 10 minutes, then diluted to 50% v/v in PBS, pH 7.4). 0.5 μL drops of solutions containing serially diluted fluorescent mSA2 and fluorescent SA samples in PBS (pH 7.4) were gently applied to the surface of each bioconjugate thin film. Films were incubated in a sealed chamber saturated with water vapor at room temperature to prevent to prevent drying of the applied fluorescent samples. After 1 hour, films were thoroughly rinsed with water for 10 seconds (a time determined to be sufficient to remove unbound molecules from the film, see FIG. 33, dried under filtered airflow, and immediately analyzed for fluorescent signal. Fluorescence microscopy images were acquired at 4× magnification using a Cy5 filter set and exposure time of 5000 ms on an Olympus IX-81 inverted fluorescence microscope with an AxioCam HRC CCD camera. Fluorescent intensity was calculated using ImageJ software⁶⁷ by determining the average fluorescent signal in a rectangular area of the fluorescent image free of defects and occupying no less than half of the full sample application area.
Oligomerization of rcSso7d.SA also brings about a decrease in biosensor limit of detection (LOD). […] While all thin films display improvements up to threefold in LOD over the monolayer, the trend in LOD with respect to degree of oligomerization is non-monotonic. The primary factor that is expected to affect LOD in the studied biosensors is number of binding sites, as more binding sites enable a greater number of analyte molecules to be captured and shifts analyte-receptor equilibrium in favor of binding events.

streptavidin [8] = target: T1, streptavidin; assay: fluorescent binding curve, labeled SA in PBS, 4 h exposure; quadratic fit
streptavidin [9] = target: T1, streptavidin; assay: fluorescent binding curve, labeled SA in 50% blood serum, 4 h; quadratic fit
[10] = target: monomeric streptavidin variant mSA2; assay: fluorescent binding assay, labeled mSA2 in PBS on monolayer; quadratic curve fit
Description: as §1, with “Films were incubated in a sealed chamber saturated with water vapor at room temperature to prevent to prevent drying of the applied fluorescent samples.” left out, “area. […]” for “area.”

T1 sequence (P22629 37-163 limits assumed): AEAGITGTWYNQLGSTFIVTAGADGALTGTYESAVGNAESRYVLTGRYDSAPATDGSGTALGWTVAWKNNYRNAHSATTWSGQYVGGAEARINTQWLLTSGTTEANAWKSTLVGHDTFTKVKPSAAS

B1: rcSso7d.SA monolayer (designed binder)
chain: MGSIHHHHHHSSGLVPRGSHMCATVKFTYQGEEKQVDISKIKIVARDGQYIDFKYDEGGGAYGYGWVSEKDAPKELLQMLEKQ
modifications: EDC/NHS-activated protein coupled to an amine-functionalized silicon wafer
notes: also called monomeric rcSso7d.SA; surface-immobilized rcSso7d.SA
With B1 the “[P]T (total concentration of binding sites)” value (streptavidin [1]) was 0.29 nM, the “[P]T (total concentration of binding sites)” value [2] was 0.4 nM and the Kd (streptavidin [3]) was 8 µM. The “sensitivity in the fluids relative to buffer” value [4] was no more than 10 fold, the Kd [5] was 50 µM and the “[P]T (total concentration of binding sites)” value [6] was 0.4 nM. The “limit of detection (LOD)” value [7] was 360 nM, the “[P]T (total concentration of binding sites)” value (streptavidin [8]) was 0.36 nM and the “[P]T (total concentration of binding sites)” value (streptavidin [9]) was 0.28 nM. It also gave a Kd [10] of 2 µM.
